{
  "source": "paper PMC7374565",
  "about": "(Nature Communications, 2020)",
  "key": {"[1]": {"target": "intrinsically disordered domain of avian ANP32A (amino acids 149-281) (Gallus gallus)", "test": "NMR titration", "conditions": "both partners purified"}, "[2]": {"target": "intrinsically disordered domain of human ANP32A (amino acids 144-249) (human, UniProt P39687 144-249)", "sequence (P39687 144-249)": "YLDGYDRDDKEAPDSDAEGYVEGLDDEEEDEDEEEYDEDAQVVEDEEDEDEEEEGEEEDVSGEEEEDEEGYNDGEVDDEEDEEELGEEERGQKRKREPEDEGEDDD", "test": "NMR titration", "conditions": "both partners purified"}},
  "data": [
    {"binder": "627 domain of PB2 (E627), amino acids 538-693 (domain or fragment) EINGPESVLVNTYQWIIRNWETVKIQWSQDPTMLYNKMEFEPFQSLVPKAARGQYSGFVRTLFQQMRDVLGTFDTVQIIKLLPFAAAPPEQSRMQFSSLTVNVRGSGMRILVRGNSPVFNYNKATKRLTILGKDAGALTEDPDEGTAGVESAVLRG", "values": [
      {"measurement": "KD of the individual sites (tightest)", "setting": "[1]", "result": "≥ 1700", "unit": "µM"},
      {"measurement": "Kd", "setting": "[1]", "result": "> 600", "unit": "µM"},
      {"measurement": "KD of the individual sites", "setting": "[2]", "result": "> 1400", "unit": "µM"}
    ]}
  ]
}
